B1: MIF (50-65) peptide (peptide)
peptide: FGGSSEPCALCSLHSI
notes: 16 residues, positions 50-65 of wildtype MIF; also called MIF peptide (50-65); Cys60-spanning 16 residue MIF peptide
B2: Ser^57 Ser^60 MIF (50-65) peptide (peptide)
peptide: FGGSSEPSALSSLHSI
notes: also called analogue of the MIF (50-65) peptide with the two Cys residues substituted for Ser
B3: p27^Kip1 (other, UniProt P46414 1-197, looked up)
chain: MSNVRVSNGSPSLERMDARQAEHPKPSACRNLFGPVNHEELTRDLEKHCRDMEEASQRKWNFDFQNHKPLEGRYEWQEVERGSLPEFYYRPPRPPKSACKVLAQESQDVSGSRQAVPLIGSQANSEDRHLVDQMPDSSDNPAGLAEQCPGMRKRPAAEDSSSQNKRANRTEENVSDGSPNAGTVEQTPKKPGLRRQT

Legend:
[1] = target: T1, biotin-labelled Jab1 (in vitro translated) (human, UniProt Q92905 2-334, biotin-labelled during in vitro translation (Transcend non-radioactive translation detection system); positions not stated); assay: competition with wildtype MIF for biotin-Jab1 in TNT reticulocyte lysate
T1 construct: also called biotin-Jab1; biotin-labelled p38^Jab1

[2] = target: T2, Recombinant human MIF (macrophage migration inhibitory factor) (human, UniProt P14174 2-115); assay: assay not described
T2 construct: Used soluble (1 uM in TNT lysates); also called rMIF; rwtMIF
T2 sequence (P14174 2-115 limits assumed): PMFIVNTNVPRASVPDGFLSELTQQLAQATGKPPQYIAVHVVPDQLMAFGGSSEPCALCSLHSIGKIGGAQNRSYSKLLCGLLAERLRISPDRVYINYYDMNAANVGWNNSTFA

T1 sequence (Q92905 2-334 limits assumed): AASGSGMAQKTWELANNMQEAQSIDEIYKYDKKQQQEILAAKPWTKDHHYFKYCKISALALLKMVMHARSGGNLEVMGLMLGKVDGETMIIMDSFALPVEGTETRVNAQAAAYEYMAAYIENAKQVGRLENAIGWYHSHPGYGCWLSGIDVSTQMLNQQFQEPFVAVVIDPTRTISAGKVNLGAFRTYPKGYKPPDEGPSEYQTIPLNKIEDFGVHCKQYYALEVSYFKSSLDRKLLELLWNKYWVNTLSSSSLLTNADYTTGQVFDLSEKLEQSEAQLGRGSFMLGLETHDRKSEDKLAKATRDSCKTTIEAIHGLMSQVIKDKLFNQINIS

Row | Binder | binding result [1] | binding result [2]
1 | B1 | binds | 
2 | B2 | binds | 
3 | B3 |  | no binding

From USRE43497 (FRAUNHOFER GESELLSCHAFT ZUR FORDERUNG DER ANGEWANDTEN …, dated 2012)
